Data published in paper PMC10197057 (Microbial Cell Factories, 2023).

Target: T1, lysozyme from chicken egg white (Gallus gallus, UniProt P00698)
T1 construct: lysozyme from chicken egg white (Sigma-Aldrich L4919); source: bought: Sigma-Aldrich (L4919)
Test: BLI; BLItz system; nanobody (100 mg/L) loaded via His-tag on Anti-Penta-HIS (HIS1K) sensor; dilution series of antigen in solution; association 180 s, dissociation 300 s; sensor hydrated in PBS-T (0.1% Tween-20); reference without antigen; global fitting
Details: both partners purified

T1 sequence (P00698 19-147): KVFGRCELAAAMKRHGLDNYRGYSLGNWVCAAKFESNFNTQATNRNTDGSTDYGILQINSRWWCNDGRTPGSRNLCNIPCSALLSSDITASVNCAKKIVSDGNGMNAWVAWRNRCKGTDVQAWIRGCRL

Kd: 1.5 nM
B1: monovalent antilysozyme nanobody 1ZVH (VHH)
VHH: DVQLVESGGGSVQAGGSLRLSCAASGYIASINYLGWFRQAPGKEREGVAAVSPAGGTPYYADSVKGRFTVSLDNAENTVYLQMNSLKPEDTALYYCAAARQGWYIPLNSYGYNYWGQGTQVTVSS
notes: anti-lysozyme camelid VHH; also called anti-lysozyme VHH; not shown: CBH2 secretory signal, CBD-carrier polypeptide and KEX2 linker (RDKR), N-terminal, cleaved; His6, C-terminal, kept
